Data as given in the RNAGym collection of RNA variant scans (doi:10.1093/molbev/msab373).

B1: Azoarcus group I ribozyme (parent)
chain: GUGCCUUGCGCCGGGAAACCACGCAAGGGAUGGUGUCAAAUUCGGCGAAACCUAAGCGCCCGCCCGGGCGUAUGGCAACGCCGAGCCAAGCUUCGGCGCCUGCGCCGAUGAAGGUGUAGAGACUAGACGGCACCCACCUAAGGCAAACGCUAUGGUGAAGGCAUAGUCCAGGGAGUGGCGAAAGUCACACAAACCGG

Variants of: B1
Assay: reverse-splicing fitness (ratio to wild type); higher = more active; in vitro selection; Mg2+ level not given
In short: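 An in vitro group I ribozyme library with randomized positions was T7-transcribed and gel-purified. In triplicate, 10 pmol RNA in EPPS pH 7.5 was reacted with 50 pmoles of a 30-nt RNA substrate for 1 h at 37 °C across several added MgCl2 levels (1–48 mM), then stopped with EDTA. Products were reverse transcribed from a substrate-complementary primer, PCR-amplified and sequenced (HiSeq 4000). Fitness is a variant's read proportion after selection over that before, normalised to wild type.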

Variant	reverse-splicing fitness
A111C A120C C169G U176C	0.021
A111C A120C C169G U176G	0.00524
A111C A120C C169U	0.183
A111C A120C C169U U176A	0.031
A111C A120C C169U U176C	0.0446
A111C A120C C169U U176G	0.0068
A111C A120C U176A	0.186
A111C A120C U176C	0.204
A111C A120C U176G	0.0393
A111C A120G	0.185
A111C A120G A145C	0.149
A111C A120G A145C C150A	0.0117
A111C A120G A145C C150A C169A	0.0103
A111C A120G A145C C150A C169A U176A	0.0112
A111C A120G A145C C150A C169A U176C	0.00698
A111C A120G A145C C150A C169A U176G	0.0054
A111C A120G A145C C150A C169G	0.0149
A111C A120G A145C C150A C169G U176A	0.024
A111C A120G A145C C150A C169G U176C	0.0161
A111C A120G A145C C150A C169G U176G	0.00527
A111C A120G A145C C150A C169U	0.0139

Variant	reverse-splicing fitness
A111C A120G A145C C150A C169U U176A	0.0178
A111C A120G A145C C150A C169U U176C	0.00924
A111C A120G A145C C150A C169U U176G	0.00392
A111C A120G A145C C150A U176A	0.0112
A111C A120G A145C C150A U176C	0.0118
A111C A120G A145C C150A U176G	0.00357
A111C A120G A145C C150G	0.0219
A111C A120G A145C C150G C169A	0.015
A111C A120G A145C C150G C169A U176A	0.00964
A111C A120G A145C C150G C169A U176C	0.00838
A111C A120G A145C C150G C169A U176G	0.0045
A111C A120G A145C C150G C169G	0.0238
A111C A120G A145C C150G C169G U176A	0.00954
A111C A120G A145C C150G C169G U176C	0.00609
A111C A120G A145C C150G C169G U176G	0.00434
A111C A120G A145C C150G C169U	0.0248
A111C A120G A145C C150G C169U U176A	0.0111
A111C A120G A145C C150G C169U U176C	0.013
A111C A120G A145C C150G C169U U176G	0.004
A111C A120G A145C C150G U176A	0.0112
A111C A120G A145C C150G U176C	0.0168

Variant	reverse-splicing fitness
A111C A120G A145C C150G U176G	0.00301
A111C A120G A145C C150U	0.0418
A111C A120G A145C C150U C169A	0.0284
A111C A120G A145C C150U C169A U176A	0.0104
A111C A120G A145C C150U C169A U176C	0.011
A111C A120G A145C C150U C169A U176G	0.00455
A111C A120G A145C C150U C169G	0.0492
A111C A120G A145C C150U C169G U176A	0.0253
A111C A120G A145C C150U C169G U176C	0.0221
A111C A120G A145C C150U C169G U176G	0.00474
A111C A120G A145C C150U C169U	0.0398
A111C A120G A145C C150U C169U U176A	0.0247
A111C A120G A145C C150U C169U U176C	0.0192
A111C A120G A145C C150U C169U U176G	0.00528
A111C A120G A145C C150U U176A	0.0163
A111C A120G A145C C150U U176C	0.0189
A111C A120G A145C C150U U176G	0.00427
A111C A120G A145C C169A	0.0989
A111C A120G A145C C169A U176A	0.0154
A111C A120G A145C C169A U176C	0.0169
A111C A120G A145C C169A U176G	0.00362

Variant	reverse-splicing fitness
A111C A120G A145C C169G	0.201
A111C A120G A145C C169G U176A	0.0348
A111C A120G A145C C169G U176C	0.0399
A111C A120G A145C C169G U176G	0.00459
A111C A120G A145C C169U	0.146
A111C A120G A145C C169U U176A	0.0395
A111C A120G A145C C169U U176C	0.0394
A111C A120G A145C C169U U176G	0.00492
A111C A120G A145C U176A	0.0323
A111C A120G A145C U176C	0.0361
A111C A120G A145C U176G	0.00548
A111C A120G A145G	0.189
A111C A120G A145G C150A	0.0307
A111C A120G A145G C150A C169A	0.02
A111C A120G A145G C150A C169A U176A	0.0174
A111C A120G A145G C150A C169A U176C	0.022
A111C A120G A145G C150A C169A U176G	0.0058
A111C A120G A145G C150A C169G	0.0313
A111C A120G A145G C150A C169G U176A	0.0195
A111C A120G A145G C150A C169G U176C	0.0342
A111C A120G A145G C150A C169G U176G	0.00523
